The values that follow come from patent US20140212406A1.

One experiment has as its target fibrin. The experiment can be described thus: binding of tPA variants to a solid-phase fibrin surface on PVC plates (3 independent experiments, 12 doses).
Experiment [1] addresses N-methyl-D-aspartate receptor on primary cultured mouse cortical neurons (mouse) (UniProt P35438). As to the kind of experiment: cell-based or functional assay.

Turning to “rat tPA with complete deletion of its K2 domain (deletion of the amino acids 181 to 262), 6xHis-tagged (from UniProt P19637 33-212; P19637 295-559) (enzyme)”, the Kd – broadly, a measure of binding affinity in units of concentration – with fibrin is 0.82 nM.

For “rat wild type tPA (Rattus norvegicus), 6xHis-tagged (from UniProt P19637 33-559) (enzyme)”, in experiment [1], the neuronal death (LDH release, cortical neurons, 50 uM NMDA, 0.3 uM tPA) came out at 71% and the potentiation of NMDAR-mediated excitotoxicity (LDH release, cortical neurons, 50 uM NMDA, 0.3 uM tPA) came to 39%.
